In the supplement of paper PMC11246515:
± gives the standard deviation of the averaged measurements.

Test: total protein half-life in vivo (active degradation + dilution); higher = more stable protein
[1] = E. coli NCM3722 delta-clpP delta-lon delta-hslV, growth: N-lim chemostat, doubling time 6 h
[2] = E. coli NCM3722 delta-clpP, growth: N-lim chemostat, doubling time 6 h
[3] = E. coli NCM3722 delta-hslV, growth: N-lim chemostat, doubling time 6 h
[4] = E. coli NCM3722 delta-lon, growth: N-lim chemostat, doubling time 6 h
[5] = E. coli NCM3722 delta-smpB, growth: N-lim chemostat, doubling time 6 h
[6] = wild type E. coli NCM3722, growth: C-lim chemostat, doubling time 3 h
[7] = wild type E. coli NCM3722, growth: C-lim chemostat, doubling time 6 h
[8] = wild type E. coli NCM3722, growth: C-lim chemostat, doubling time 12 h
[9] = wild type E. coli NCM3722, growth: N-lim chemostat, doubling time 6 h
[10] = wild type E. coli NCM3722, growth: N-lim chemostat, doubling time 12 h
[11] = wild type E. coli NCM3722, growth: P-lim chemostat, doubling time 6 h
[12] = wild type E. coli NCM3722, growth: P-lim chemostat, doubling time 12 h

Q: Which results are given for “MPEQYRYTLPVKAGEQRLLGELTGAACATLVAEIAERHAGPVVLIAPDMQNALRLHDEISQFTDQMVMNLADWETLPYDSFSPHQDIISSRLSTLYQLPTMQRGVLIVPVNTLMQRVCPHSFLHGHALVMKKGQRLSRDALRTQLDSAGYRHVDQVMEHGEYATRGALLDLFPMGSELPYRLDFFDDEIDSLRVFDVDSQRTLEEVEAINLLPAHEFPTDKAAIELFRSQWRDTFEVKRDPEHIYQQVSKGTLPAGIEYWQPLFFSEPLPPLFSYFPANTLLVNTGDLETSAERFQADTLARFENRGVDPMRPLLPPQSLWLRVDELFSELKNWPRVQLKTEHLPTKAANANLGFQKLPDLAVQAQQKAPLDALRKFLETFDGPVVFSVESEGRREALGELLARIKIAPQRIMRLDEASDRGRYLMIGAAEHGFVDTVRNLALICESDLLGERVARRRQDSRRTINPDTLIRNLAELHIGQPVVHLEHGVGRYAGMTTLEAGGITGEYLMLTYANDAKLYVPVSSLHLISRYAGGAEENAPLHKLGGDAWSRARQKAAEKVRDVAAELLDIYAQRAAKEGFAFKHDREQYQLFCDSFPFETTPDQAQAINAVLSDMCQPLAMDRLVCGDVGFGKTEVAMRAAFLAVDNHKQVAVLVPTTLLAQQHYDNFRDRFANWPVRIEMISRFRSAKEQTQILAEVAEGKIDILIGTHKLLQSDVKFKDLGLLIVDEEHRFGVRHKERIKAMRANVDILTLTATPIPRTLNMAMSGMRDLSIIATPPARRLAVKTFVREYDSMVVREAILREILRGGQVYYLYNDVENIQKAAERLAELVPEARIAIGHGQMRERELERVMNDFHHQRFNVLVCTTIIETGIDIPTANTIIIERADHFGLAQLHQLRGRVGRSHHQAYAWLLTPHPKAMTTDAQKRLEAIASLEDLGAGFALATHDLEIRGAGELLGEEQSGSMETIGFSLYMELLENAVDALKAGREPSLEDLTSQQTEVELRMPSLLPDDFIPDVNTRLSFYKRIASAKTENELEEIKVELIDRFGLLPDPARTLLDIARLRQQAQKLGIRKLEGNEKGGVIEFAEKNHVNPAWLIGLLQKQPQHYRLDGPTRLKFIQDLSERKTRIEWVRQFMRELEENAIA”?
A: total protein half-life in vivo [1]: 5.59 ± 0.3 h; total protein half-life in vivo [2]: 5.07 ± 0.12 h; total protein half-life in vivo [3]: 5.1 ± 0.13 h; total protein half-life in vivo [4]: 5.12 ± 0.13 h; total protein half-life in vivo [5]: 5.021 ± 0.009 h; total protein half-life in vivo [6]: 3.07 ± 0.11 h; total protein half-life in vivo [7]: 6.0491 ± 0.00051 h; total protein half-life in vivo [8]: 11.4 ± 0.52 h; total protein half-life in vivo [9]: 4.9912 ± 0.001 h; total protein half-life in vivo [10]: 8.76 ± 0.27 h; total protein half-life in vivo [11]: 5.92 ± 0.57 h; total protein half-life in vivo [12]: 11.3 ± 0.21 h

Q: Which “total protein half-life in vivo” value [1] does the source give for “MSKSDVFHLGLTKNDLQGATLAIVPGDPDRVEKIAALMDKPVKLASHREFTTWRAELDGKPVIVCSTGIGGPSTSIAVEELAQLGIRTFLRIGTTGAIQPHINVGDVLVTTASVRLDGASLHFAPLEFPAVADFECTTALVEAAKSIGATTHVGVTASSDTFYPGQERYDTYSGRVVRHFKGSMEEWQAMGVMNYEMESATLLTMCASQGLRAGMVAGVIVNRTQQEIPNAETMKQTESHAVKIVVEAARRLL” here?
A: 6.83 ± 0.33 h

Q: And the “total protein half-life in vivo” value [2]?
A: 6.27 ± 0.78 h

Q: And the “total protein half-life in vivo” value [3]?
A: 7.09 ± 0.43 h

Q: And the “total protein half-life in vivo” value [4]?
A: 5.95 ± 0.47 h

Q: What about the “total protein half-life in vivo” value [5] of the same sequence?
A: 5.823 ± 0.029 h

Q: And the “total protein half-life in vivo” value [6]?
A: 3.23 ± 0.11 h

Q: What about the “total protein half-life in vivo” value [7] of the same sequence?
A: 6.246 ± 0.033 h

Q: What about the “total protein half-life in vivo” value [8] of the same sequence?
A: 13.7 ± 2.1 h

Q: What about the “total protein half-life in vivo” value [9] of the same sequence?
A: 5.75 ± 0.092 h

Q: And the “total protein half-life in vivo” value [10]?
A: 10.7 ± 0.74 h

Q: And the “total protein half-life in vivo” value [11]?
A: 5.99 ± 0.2 h

Q: What about the “total protein half-life in vivo” value [12] of the same sequence?
A: 12.4 ± 0.29 h

Q: For “MKINQPAVAGTLESGDVMIRIAPLDTQDIDLQINSSVEKQFGDAIRTTILDVLARYNVRGVQLNVDDKGALDCILRARLEALLARASGIPALPWEDCQ”, which “total protein half-life in vivo” value [5] is on record?
A: 1.09 h

Q: Which results are given for “MTEPLKPRIDFDGPLEVDQNPKFRAQQTFDENQAQNFAPATLDEAQEEEGQVEAVMDAALRPKRSLWRKMVMGGLALFGASVVGQGVQWTMNAWQTQDWVALGGCAAGALIIGAGVGSVVTEWRRLWRLRQRAHERDEARDLLHSHGTGKGRAFCEKLAQQAGIDQSHPALQRWYASIHETQNDREVVSLYAHLVQPVLDAQARREISRSAAESTLMIAVSPLALVDMAFIAWRNLRLINRIATLYGIELGYYSRLRLFKLVLLNIAFAGASELVREVGMDWMSQDLAARLSTRAAQGIGAGLLTARLGIKAMELCRPLPWIDDDKPRLGDFRRQLIGQVKETLQKGKTPSEK [P0A8R7]”?
A: total protein half-life in vivo [1]: 5.42 ± 0.51 h; total protein half-life in vivo [2]: 5.1 ± 0.24 h; total protein half-life in vivo [3]: 4.51 ± 0.62 h; total protein half-life in vivo [4]: 4.85 ± 0.12 h; total protein half-life in vivo [5]: 4.83 ± 0.29 h; total protein half-life in vivo [6]: 2.96 ± 0.27 h; total protein half-life in vivo [7]: 4.75 ± 0.28 h; total protein half-life in vivo [8]: 11.2 ± 0.13 h; total protein half-life in vivo [9]: 5.23 ± 0.17 h; total protein half-life in vivo [10]: 8.5 ± 0.23 h; total protein half-life in vivo [11]: 5.02 ± 0.48 h; total protein half-life in vivo [12]: 8.52 ± 0.38 h

Q: For “MISVFDIFKIGIGPSSSHTVGPMKAGKQFTDDLIARNLLKDVTRVVVDVYGSLSLTGKGHHTDIAIIMGLAGNLPDTVDIDSIPSFIQDVNTHGRLMLANGQHEVEFPVDQCMNFHADNLSLHENGMRITALAGDKVVYSQTYYSIGGGFIVDEEHFGQQDSAPVEVPYPYSSAADLQKHCQETGLSLSGLMMKNELALHSKEELEQHLANVWEVMRGGIERGISTEGVLPGKLRVPRRAAALRRMLVSQDKTTTDPMAVVDWINMFALAVNEENAAGGRVVTAPTNGACGIIPAVLAYYDKFIREVNANSLARYLLVASAIGSLYKMNASISGAEVGCQGEVGVACSMAAAGLAELLGASPAQVCIAAEIAMEHNLGLTCDPVAGQVQVPCIERNAIAAVKAVNAARMALRRTSEPRVCLDKVIETMYETGKDMNAKYRETSRGGLAMKIVACD”, which “total protein half-life in vivo” value [1] is on record?
A: 3.9 h

Q: What does the source list for “MSHTIRDKQKLKARASKIQGQVVALKKMLDEPHECAAVLQQIAAIRGAVNGLMREVIKGHLTEHIVHQGDELKREEDLDVVLKVLDSYIK”?
A: total protein half-life in vivo [1]: 7.38 ± 0.4 h; total protein half-life in vivo [2]: 7.02 ± 0.26 h; total protein half-life in vivo [4]: 6.29 ± 0.15 h; total protein half-life in vivo [6]: > 4 h; total protein half-life in vivo [7]: 7.3 ± 0.65 h; total protein half-life in vivo [8]: 10.8 h; total protein half-life in vivo [9]: 5.53 ± 0.39 h; total protein half-life in vivo [10]: 11.2 h; total protein half-life in vivo [11]: 4.14 ± 1.8 h; total protein half-life in vivo [12]: 11.9 ± 0.86 h

Q: With “MQQPVVRVGEWLVTPSINQISRNGRQLTLEPRLIDLLVFFAQHSGEVLSRDELIDNVWKRSIVTNHVVTQSISELRKSLKDNDEDSPVYIATVPKRGYKLMVPVIWYSEEEGEEIMLSSPPPIPEAVPATDSPSHSLNIQNTATPPEQSPVKSKRFTTFWVWFFFLLSLGICVALVAFSSLDTRLPMSKSRILLNPRDIDINMVNKSCNSWSSPYQLSYAIGVGDLVATSLNTFSTFMVHDKINYNIDEPSSSGKTLSIAFVNQRQYRAQQCFMSIKLVDNADGSTMLDKRYVITNGNQLAIQNDLLESLSKALNQPWPQRMQETLQKILPHRGALLTNFYQAHDYLLHGDDKSLNRASELLGEIVQSSPEFTYARAEKALVDIVRHSQHPLDEKQLAALNTEIDNIVTLPELNNLSIIYQIKAVSALVKGKTDESYQAINTGIDLEMSWLNYVLLGKVYEMKGMNREAADAYLTAFNLRPGANTLYWIENGIFQTSVPYVVPYLDKFLASE” as the sequence, how does the “total protein half-life in vivo” value [1] read?
A: 5.6 ± 0.59 h

Q: What about the “total protein half-life in vivo” value [2] of the same sequence?
A: 5.47 ± 0.86 h

Q: And the “total protein half-life in vivo” value [3]?
A: 5.65 ± 0.78 h

Q: And the “total protein half-life in vivo” value [5]?
A: 5.484 ± 0.022 h

Q: What about the “total protein half-life in vivo” value [9] of the same sequence?
A: 5.06 ± 0.32 h

Q: What about the “total protein half-life in vivo” value [10] of the same sequence?
A: 12.73 ± 0.03 h

Q: What about the “total protein half-life in vivo” value [11] of the same sequence?
A: 6.18 ± 0.23 h

Q: What about the “total protein half-life in vivo” value [12] of the same sequence?
A: 12.08 ± 0.11 h
